# Assays:
# [1] = target: HIV-1 envelope Q168.a2 (subtype A) (HIV-1)
# [2] = target: HIV-1 envelope Q842.d12 (subtype A) (HIV-1)
# [3] = target: HIV-1 envelope Du156.12 (subtype C) (HIV-1)
# [4] = target: HIV-1 envelope ZM197.7 (subtype C) (HIV-1)
# [5] = target: HIV-1 envelope ZM233.6 (subtype C) (HIV-1)
# [6] = target: HIV-1 envelope Du422.01 (subtype C) (HIV-1)
# [7] = target: HIV-1 envelope Du172.17 (subtype C) (HIV-1)
# [8] = target: HIV-1 envelope CAP214.15 (subtype C) (HIV-1)
# [9] = target: HIV-1 envelope 6535 (subtype B) (HIV-1)
# [10] = target: HIV-1 envelope CAP210.E8 (subtype C) (HIV-1)
# [11] = target: HIV-1 envelope QH0692.42 (subtype B) (HIV-1)
# [12] = target: HIV-1 envelope TRO.11 (subtype B) (HIV-1)
# [13] = target: HIV-1 envelope Q23.17 (subtype A) (HIV-1)
# [14] = target: HIV-1 envelope CAP45.G3 (subtype C) (HIV-1)
# [15] = target: HIV-1 envelope Q461.e2 (subtype A) (HIV-1)
Substance,"IC50 of neutralisation of HIV-1 pseudovirus, TZM-bl assay [1] [µg/mL]","IC50 of neutralisation of HIV-1 pseudovirus, TZM-bl assay [2] [µg/mL]","IC50 of neutralisation of HIV-1 pseudovirus, TZM-bl assay [3] [µg/mL]","IC50 of neutralisation of HIV-1 pseudovirus, TZM-bl assay [4] [µg/mL]","IC50 of neutralisation of HIV-1 pseudovirus, TZM-bl assay [5] [µg/mL]","IC50 of neutralisation of HIV-1 pseudovirus, TZM-bl assay [6] [µg/mL]","IC50 of neutralisation of HIV-1 pseudovirus, TZM-bl assay [7] [µg/mL]","IC50 of neutralisation of HIV-1 pseudovirus, TZM-bl assay [8] [µg/mL]","IC50 of neutralisation of HIV-1 pseudovirus, TZM-bl assay [9] [µg/mL]","IC50 of neutralisation of HIV-1 pseudovirus, TZM-bl assay [10] [µg/mL]","IC50 of neutralisation of HIV-1 pseudovirus, TZM-bl assay [11] [µg/mL]","IC50 of neutralisation of HIV-1 pseudovirus, TZM-bl assay [12] [µg/mL]","IC50 of neutralisation of HIV-1 pseudovirus, TZM-bl assay [13] [µg/mL]","IC50 of neutralisation of HIV-1 pseudovirus, TZM-bl assay [14] [µg/mL]","IC50 of neutralisation of HIV-1 pseudovirus, TZM-bl assay [15] [µg/mL]"
CAP256-VRC26.25 produced in N. benthamiana (ΔXTFT) with Cas9/sgRNAs coexpression (antibody),3.05,> 50,0.041,0.098,0.005,0.2,> 50,2.77,> 50,0.0014,> 50,> 50,0.0016,0.0013,1.61
CAP256-VRC26.25 produced in HEK293 (antibody),1.73,> 50,0.15,0.11,0.0044,0.11,> 50,3.12,> 50,0.0012,> 50,> 50,0.0014,0.0013,0.67
CAP256-VRC26.25 produced in N. benthamiana (ΔXTFT) without Cas9/sgRNAs coexpression (antibody),2.94,> 50,0.034,0.056,0.0042,0.1,> 50,4.31,> 50,0.0015,> 50,> 50,0.0016,0.0014,1.73

# — paper PMC9433777
